Assay results from patent US20070286806A1, “Methods and Compositions for Modulating a Steroid Receptor” (Mount Sinai Hospital, priority 2004, published 2007).

T1: progesterone receptor isoform B (PRB), full length (Homo sapiens (Human), UniProt P06401 1-933)
T1 construct: From expression vector pSG5 PRB; expressed in 293T or SHM cells, or translated in rabbit reticulocyte lysate with ^35S methionine for the GST pulldown; also called ^35S-labeled PRB; full length PR
T1 sequence: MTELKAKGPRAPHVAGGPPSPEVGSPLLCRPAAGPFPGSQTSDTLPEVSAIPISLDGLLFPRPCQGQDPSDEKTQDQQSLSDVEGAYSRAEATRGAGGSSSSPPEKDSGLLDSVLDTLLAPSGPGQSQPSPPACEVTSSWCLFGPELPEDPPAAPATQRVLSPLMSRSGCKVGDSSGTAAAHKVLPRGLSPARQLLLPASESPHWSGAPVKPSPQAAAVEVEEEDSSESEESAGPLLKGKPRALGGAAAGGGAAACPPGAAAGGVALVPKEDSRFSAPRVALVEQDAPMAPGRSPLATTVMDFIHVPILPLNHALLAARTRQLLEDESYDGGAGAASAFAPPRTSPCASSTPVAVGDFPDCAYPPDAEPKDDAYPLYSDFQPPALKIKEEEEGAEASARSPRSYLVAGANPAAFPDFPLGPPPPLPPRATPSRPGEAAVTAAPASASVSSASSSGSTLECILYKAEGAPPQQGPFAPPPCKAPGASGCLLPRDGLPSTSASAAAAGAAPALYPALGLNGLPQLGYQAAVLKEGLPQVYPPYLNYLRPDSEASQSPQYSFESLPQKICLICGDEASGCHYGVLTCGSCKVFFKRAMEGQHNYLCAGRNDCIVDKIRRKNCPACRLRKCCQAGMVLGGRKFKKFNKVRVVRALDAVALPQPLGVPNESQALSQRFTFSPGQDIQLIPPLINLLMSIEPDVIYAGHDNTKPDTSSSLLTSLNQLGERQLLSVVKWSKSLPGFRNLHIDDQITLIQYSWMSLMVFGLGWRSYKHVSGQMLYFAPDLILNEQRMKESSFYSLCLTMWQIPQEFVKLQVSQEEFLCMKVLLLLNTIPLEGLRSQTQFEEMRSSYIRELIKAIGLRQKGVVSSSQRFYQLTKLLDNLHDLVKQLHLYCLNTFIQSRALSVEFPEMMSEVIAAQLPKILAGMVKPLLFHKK

B1: His-PSF (6xHis-tagged full length human PSF, amino acid 1-707) (other)
chain: MSRDRFRSRGGGGGGFHRRGGGGGRGGLHDFRSPPPGMGLNQNRGPMGPGPGQSGPKPPIPPPPPHQQQQQPPPQQPPPQQPPPHQPPPHPQPHQQQQPPPPPQDSSKPVVAQGPGPAPGVGSAPPASSSAPPATPPTSGAPPGSGPGPTPTPPPAVTSAPPGAPPPTPPSSGVPTTPPQAGGPPPPPAAVPGPGPGPKQGPGPGGPKGGKMPGGPKPGGGPGLSTPGGHPKPPHRGGGEPRGGRQHHPPYHQQHHQGPPPGGPGGRSEEKISDSEGFKANLSLLRRPGEKTYTQRCRLFVGNLPADITEDEFKRLFAKYGEPGEVFINKGKGFGFIKLESRALAEIAKAELDDTPMRGRQLRVRFATHAAALSVRNLSPYVSNELLEEAFSQFGPIERAVVIVDDRGRSTGKGIVEFASKPAARKAFERCSEGVFLLTTTPRPVIVEPLEQLDDEDGLPEKLAQKNPMYQKERETPPRFAQHGTFEYEYSQRWKSLDEMEKQQREQVEKNMKDAKDKLESEMEDAYHEHQANLLRQDLMRRQEELRRMEELHNQEMQKRKEMQLRQEEERRRREEEMMIRQREMEEQMRRQREESYSRMGYMDPRERDMRMGGGGAMNMGDPYGSGGQKFPPLGGGGGIGYEANPGVPPATMSGSMMGSDMRTERFGQGGAGPVGGQGPRGMGPGTPAGYGRGREEYEGPNKKPRF
notes: Expressed in 293T or SHM cells (co-immunoprecipitation, reporter assays) or translated in rabbit reticulocyte lysate with ^35S methionine (GST pulldown); 1 only as 'e.g.' of wild type PSF; also called His tagged PSF; His tagged PSF1-707; not shown: N-terminal 6xHis tag of vector pcDNA3.1 6xHis
B2: pM-PSF: PSF fused to C-terminus of Gal4-DBD in pM vector (protein)
chain: MKLLSSIEQACDICRLKKLKCSKEKPKCAKCLKNNWECRYSPKTKRSPLTRAHLTEVESRLERLEQLFLLIFPREDLDMILKMDSLQDIKALLTGLFVQDNVNKDAVTDRLASVETDMPLTLRQHRISATSSSEESSNKGQRQLTVSMSRDRFRSRGGGGGGFHRRGGGGGRGGLHDFRSPPPGMGLNQNRGPMGPGPGQSGPKPPIPPPPPHQQQQQPPPQQPPPQQPPPHQPPPHPQPHQQQQPPPPPQDSSKPVVAQGPGPAPGVGSAPPASSSAPPATPPTSGAPPGSGPGPTPTPPPAVTSAPPGAPPPTPPSSGVPTTPPQAGGPPPPPAAVPGPGPGPKQGPGPGGPKGGKMPGGPKPGGGPGLSTPGGHPKPPHRGGGEPRGGRQHHPPYHQQHHQGPPPGGPGGRSEEKISDSEGFKANLSLLRRPGEKTYTQRCRLFVGNLPADITEDEFKRLFAKYGEPGEVFINKGKGFGFIKLESRALAEIAKAELDDTPMRGRQLRVRFATHAAALSVRNLSPYVSNELLEEAFSQFGPIERAVVIVDDRGRSTGKGIVEFASKPAARKAFERCSEGVFLLTTTPRPVIVEPLEQLDDEDGLPEKLAQKNPMYQKERETPPRFAQHGTFEYEYSQRWKSLDEMEKQQREQVEKNMKDAKDKLESEMEDAYHEHQANLLRQDLMRRQEELRRMEELHNQEMQKRKEMQLRQEEERRRREEEMMIRQREMEEQMRRQREESYSRMGYMDPRERDMRMGGGGAMNMGDPYGSGGQKFPPLGGGGGIGYEANPGVPPATMSGSMMGSDMRTERFGQGGAGPVGGQGPRGMGPGTPAGYGRGREEYEGPNKKPRF

What was measured:
[1] = target: T1, progesterone receptor isoform B (PRB), …; test: summary of Example 1; in vivo and in vitro protein interaction assays
[2] = test system: G5-Luc reporter; test: Mammalian two-hybrid system with G5-Luc reporter; assay type: cell-based, Syrian hamster; settings: SHM cells
Method: FIG. 2. PSF interacts with PR in vivo. (A) 293T cells were transient transfected with an expression vector for PRB and/or His-PSF for 18 hours, followed by lysis in NETN buffer with NaCl at 150 mM. Whole cell lysate (WCL) was incubated with PR antibody (C-20, Santa Cruz) or anti-His tag antibody (H-15, Santa Cruz), using protein A/G-sepharose as an absorbent. Resins were washed with NETN containing 100 mM NaCl, and bound proteins were detected by western blotting with antibodies to PR (C-20) or His-PSF (H-15). (B) Western blots of PSF (left) and PR (right) in immunoprecipitates of control mouse IgG or mouse anti-PR (AB52) or anti-PSF (B92) antibody from extracts of T47D cells. […] Luciferase activity was measured and normalized by β-galatosidase activity. […]
For immunoprecipitation of the endogenous PR and PSF, T47D cells cultured in 150 mm dishes were lysed in 800 μl NETN buffer containing 150 mM NaCl plus protease inhibitor cocktail. […] Gels were treated with Enhancer (NEN, Boston, US) dried and analyzed by autoradiography. • Cell culture and transient transfection: SHM cells and 293T cells were maintained in DMEM plus 5% FCS (Sigma) as described before (22). […] Luciferase activity was determined by using the luciferin reagent (Promega) according to manufacture's protocol. […]

Molecule	binding result [1]	luciferase activity on co-transfection with VP16-PRA and VP16-PRB ([2]; G5-Luc, ligand-independent)	reduction in luciferase activity compared to pM empty vector ([2]; co-transfected with G5-Luc) [%]
B1	binds	–	–
B2	–	dramatic increase of luciferase activity	70
